Measurements from publication doi:10.1101/621219 (bioRxiv, 2019).
Several values for one entry are separate records, joined by “and”; a condition that tells them apart may be missing. Identical values can stand only once. Like-named read-outs stand apart in the source and are kept apart here.

Assays:
[1] = target: T1, FoxA, TonB-dependent ferrioxamine B transporter from Pseudomonas aeruginosa PAO1 (full-length) (Pseudomonas aeruginosa strain PAO1, UniProt Q9I116 1-820); assay: ITC
T1 sequence (looked up): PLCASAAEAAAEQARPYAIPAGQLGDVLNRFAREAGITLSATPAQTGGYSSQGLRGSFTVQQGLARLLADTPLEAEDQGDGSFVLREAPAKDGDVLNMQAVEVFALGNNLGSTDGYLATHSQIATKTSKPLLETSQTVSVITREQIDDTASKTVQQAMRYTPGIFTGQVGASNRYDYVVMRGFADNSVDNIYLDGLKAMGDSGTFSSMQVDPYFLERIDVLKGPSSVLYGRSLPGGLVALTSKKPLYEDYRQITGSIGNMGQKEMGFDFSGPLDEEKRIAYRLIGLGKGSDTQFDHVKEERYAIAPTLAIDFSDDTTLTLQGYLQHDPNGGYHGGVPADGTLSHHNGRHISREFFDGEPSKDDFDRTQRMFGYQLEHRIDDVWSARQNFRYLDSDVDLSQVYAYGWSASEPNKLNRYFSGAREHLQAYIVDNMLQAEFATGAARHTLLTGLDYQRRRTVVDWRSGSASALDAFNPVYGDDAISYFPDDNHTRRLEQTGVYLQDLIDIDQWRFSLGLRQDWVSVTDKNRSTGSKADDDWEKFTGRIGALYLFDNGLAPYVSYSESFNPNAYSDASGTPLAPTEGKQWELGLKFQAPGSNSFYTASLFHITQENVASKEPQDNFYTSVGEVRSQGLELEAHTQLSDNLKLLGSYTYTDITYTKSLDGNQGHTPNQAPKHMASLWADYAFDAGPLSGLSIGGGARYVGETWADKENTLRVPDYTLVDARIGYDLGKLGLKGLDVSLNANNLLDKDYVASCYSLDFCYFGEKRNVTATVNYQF

[2] = target: T1, FoxA, TonB-dependent ferrioxamine B …; assay: ITC; remark: listed apart in the source

B1: C-terminal domain of TonB1 from Pseudomonas aeruginosa PAO1 (residues 251-340) (domain or fragment, Pseudomonas aeruginosa strain PAO1, UniProt Q51368 251-340, looked up)
chain: DSDIKPLRMDPPVYPRMAQARGIEGRVKVLFTITSDGRIDDIQVLESVPSRMFDREVRQAMAKWRFEPRVSGGKIVARQATKMFFFKIEK
- Kd [1]: 6 nM and 6 to 10 nM
- dH [1]: -19.2 ± 0.4 kcal/mol
- Kd [2]: 107 ± 30 nM
- dH [2]: -11 ± 0.3 kcal/mol
